Patent US20030134774A1, “Methods for inhibiting cardiac disorders” (priority 2001, published 2003)

What was measured:
PKC-ε = target: T1, PKC-ε (Rattus norvegicus, UniProt P09216); assay: Western blot with anti-phospho-PKC antibody in cardiomyocytes; format: cell-based; conditions: 400 ng/ml, 24 hr
T1 construct: endogenous in cells; host or cells: cultured neonatal rat ventricular cardiomyocytes
T1 sequence (P09216 1-737): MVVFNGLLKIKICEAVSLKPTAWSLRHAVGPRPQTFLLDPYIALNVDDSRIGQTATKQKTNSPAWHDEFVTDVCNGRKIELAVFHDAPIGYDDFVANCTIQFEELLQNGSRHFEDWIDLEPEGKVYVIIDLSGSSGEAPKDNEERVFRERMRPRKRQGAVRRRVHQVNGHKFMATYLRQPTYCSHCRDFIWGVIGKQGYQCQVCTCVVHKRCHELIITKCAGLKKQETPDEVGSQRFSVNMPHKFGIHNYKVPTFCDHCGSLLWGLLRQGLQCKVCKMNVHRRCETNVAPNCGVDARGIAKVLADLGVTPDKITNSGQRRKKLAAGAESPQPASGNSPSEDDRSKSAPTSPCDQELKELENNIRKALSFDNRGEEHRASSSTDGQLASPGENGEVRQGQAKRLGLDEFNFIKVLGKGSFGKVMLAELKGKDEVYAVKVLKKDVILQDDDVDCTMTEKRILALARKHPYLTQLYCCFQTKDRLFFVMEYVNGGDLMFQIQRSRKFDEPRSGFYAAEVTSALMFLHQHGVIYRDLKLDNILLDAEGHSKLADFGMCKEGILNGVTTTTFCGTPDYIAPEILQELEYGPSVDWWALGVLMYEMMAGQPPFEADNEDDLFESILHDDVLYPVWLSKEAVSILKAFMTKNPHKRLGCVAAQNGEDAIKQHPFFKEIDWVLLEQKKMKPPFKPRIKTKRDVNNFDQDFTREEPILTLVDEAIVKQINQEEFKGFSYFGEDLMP
Method: (§1) rPMT selectively activates nPKC isoforms. Cardiomyocyte cultures were incubated in culture medium without or with NE (10 μM), rPMT (400 ng/ml) or PMA (100 nM) for 24 hr (Panels A and C) or 5 min (Panel B). Soluble extracts were prepared and separated by SDS-PAGE followed by immunodetection of total PKC isoform abundance with antibodies that are specific for the individual PKC isoforms (Panel A), or phosphorylated forms of PKC (largely PKCε) with a pan-phospho-PKC antibody (Panels B and C), as described in Methods below. GF109203 was included at 5 μM 30 min prior to stimulation as indicated.
Specific immunoreactivity for individual PKC isoforms was quantified according to methods described previously. For assays of MAPKs and AKT, cells were exposed to test agents as indicated in individual experimental protocols, washed three times with ice-cold calcium/magnesium-free Dulbecco's PBS (pH 7.1), scraped into ice-cold extraction buffer [20 mM β-glycerophosphate pH 7.5, 20 mM sodium fluoride, 2 mM EDTA, 0.2 mM sodium vanadate, 10 μg/ml aprotinin, 25 μg/ml leupeptin, 50 μg/ml PMSF, and 0.3% (v/v) β-mercaptoethanol], lysed by sonication, and centrifuged at 10,000 g for 10 min at 4° C. The supernatant was diluted in SDS-PAGE sample buffer, boiled for 5 min, and stored at −70° C. […] Bands were detected by enhanced chemiluminescence and blots were quantified by laser scanning densitometry.

PKCα and PKCλ = assay: Immunoblot of PKCα/PKCλ abundance and distribution in cardiomyocytes; format: cell-based, rat; conditions: 24 hr stimulation
Method: as §1
Cells were maintained in culture in the presence of 10% FCS for 96 hr and then switched to serum-free medium for 24 hr prior to the addition of agonists as indicated. For PKC, extracts were prepared and subjected to SDS-PAGE to resolve individual isoforms according to methods described previously (14).
Specific immunoreactivity for individual PKC isoforms was quantified according to methods described previously. […] Bands were detected by enhanced chemiluminescence and blots were quantified by laser scanning densitometry.

p38-MAPK = assay: Phospho-p38 MAP kinase Western blot in cardiomyocytes; format: cell-based, rat
Method: (§2) rPMT promotes the activation of ERK1/2, JNK and p38-MAPK cascades. Incubations were for 24 hr in the presence of the indicated concentrations of rPMT. PMA (100 nM, 5 min) and sorbitol ([…], 5 min) were included as positive controls. Cell lysates were subjected to SDS-PAGE followed by Western blotting as described in Methods below. Phosphorylated forms of ERK1/2 (A), p38 MAP kinase (B) or JNK (C) were detected by specific anti-phospho-ERK1/2, -p38 MAP kinase or -JNK antibodies, respectively. Blots were stripped and subjected to immunoblot analysis with total ERK1/2 or p38 MAP kinase to normalize for minor variations in protein loading (Panels A and B). Top: representative autoradiograms (with each lane from a single gel exposed for the same duration). Bottom: quantification of each series of experiments (n=3).
(§3) Specific immunoreactivity for individual PKC isoforms was quantified according to methods described previously. For assays of MAPKs and AKT, cells were exposed to test agents as indicated in individual experimental protocols, washed three times with ice-cold calcium/magnesium-free Dulbecco's PBS (pH 7.1), scraped into ice-cold extraction buffer [20 mM β-glycerophosphate pH 7.5, 20 mM sodium fluoride, 2 mM EDTA, 0.2 mM sodium vanadate, 10 μg/ml aprotinin, 25 μg/ml leupeptin, 50 μg/ml PMSF, and 0.3% (v/v) β-mercaptoethanol], lysed by sonication, and centrifuged at 10,000 g for 10 min at 4° C. The supernatant was diluted in SDS-PAGE sample buffer, boiled for 5 min, and stored at −70° C. Western blot analysis was performed with antibodies that are selective for the phosphorylated (activated) forms of ERK1/2, p38-MAPK, JNK, AKT, and pan-PKC according to manufacturer's instructions. For each panel in each Figure, the results are from a single gel exposed for a uniform duration. Bands were detected by enhanced chemiluminescence and blots were quantified by laser scanning densitometry.

JNK = assay: Phospho-JNK Western blot in cardiomyocytes; format: cell-based, rat
Method: as §2, §3

cardiomyocytes = assay: Cardiomyocyte growth: sarcomeric organization and cell size; format: cell-based, rat; conditions: rPMT 400 ng/ml or NE 10 μM, 48 hr, serum-free
Method: rPMT mimics the effect of norepinephrine to promote cardiomyocyte hypertrophy. Cardiomyocytes were cultured in serum-free medium without or with rPMT (400 ng/ml) or norepinephrine (NE, 10 μM) for 48 hr. Cardiomyocytes were fixed, permeabilized, and stained with monoclonal anti-α-actinin sarcomeric (Panel A, magnification×100) or subjected to Northern blot analysis for measurements of steady-state ANF mRNA expression (Panel B). Effects of rPMT (black bars) and NE (gray bars) vs. vehicle (white bars) on sarcomeric organization (Panel C), cell size (Panel D), and protein synthesis (Panel E) are illustrated (n=3 for each).
Cardiomyocyte growth was assessed by measuring cell surface area by digitized image analysis. For each experimental point, 7-10 frames/dish were recorded at 40× magnification with a video camera attached to a Nikon microscope which was calibrated with a micrometer.
Cardiomyocytes were grown on slides precoated with fibronectin. After treatment, cells were fixed with cold methanol and permeabilized with 0.1% Triton X-100 and 0.2% BSA. Cells were incubated with α-actinin monoclonal antibody overnight at 4° C. followed by anti-mouse IgG-Cy3-labeled antibody for 30 min at room temperature. Fluorescence microscopy images were obtained at 100× magnification.

[1] = 24 hr, indicated concentrations
[2] = increased progressively for 24 hr
[3] = rPMT 24 hr, sorbitol 5 min positive control

B1: rPMT: recombinant Pasteurella multocida toxin, a Gαq agonist used as pharmacological probe (protein, UniProt P17452 1-1285, looked up)
Dermonecrotic toxin: MKTKHFFNSDFTVKGKSADEIFRRLCTDHPDKQLNNVKWKEVFINRFGQMMLDTPNPRKIVEKIINEGLEKQGLKNIDPETTYFNIFSSSDSSDGNVFHYNSLSESYRVTDACLMNIFVERYFDDWDLLNSLASNGIYSVGKEGAYYPDHDYGPEYNPVWGPNEQIYHSRVIADILYARSVWDEFKKYFMEYWQKYAQLYTEMLSDTFLAMAIQQYTRQTLTDEGFLMVCNTYYGNKEEVQITLLDIYGYPSTDIICIEQKGLPTPKVILYIPGGTQPFVEFLNTDDLKQWIAWHLKDNKHMVAFRKHFSLKQRQEGETFTGIDKALQYIAEESPEWPANKYILYNPTHLETENLFNIMMKRTEQRMLEDSDVQIRSNSEATRDYALSLLETFISQLSAIDMLVPAVGIPINFALSATALGLSSDIVVNGDSYEKRKYGIGSLVQSALFTGINLIPVISETAEILSSFSRTEEDIPAFFTEEQALAQRFEIVEEELHSISPDDPPREITDENLHKIRLVRLNNENQPLVVLRRLGGNKFIRIEPITFQEIKGSLVSEVINPVTNKTYYVSNAKLLGGSPYSPFRIGLEGVWTPEVLKARASVIGKPIGESYKRILAKLQRIHNSNILDERQGLMHELMELIDLYEESQPSSERLNAFRELRTQLEKALYLPEMEALKKQILQIPNKGSGAARFLLRTAMNEMAGKTSESTADLIRFALQDTVISAPFRGYAGAIPEAIDFPVKYVIEDISVFDKIQTNYWELPAYESWNEGSNSALLPGLLRESQSKGMLSKCRIIENSLYIGHSYEEMFYSISPYSNQVGGPYELYPFTFFSMLQEVQGDLGFEQAFATRNFFNTLVSDRLSLMENTMLLTESFDYTPWDAIYGDINYDEQFAAMSINERIEKCMNTYRGVAFQNSSKSIDFFLNNLTTFIDNGLTEIAISDLPYDIVQQEISQFLQGSNEWKTLDAMLFNLDKGDINGAFRKLLQSAKDNNIKFRAIGHSDNSVPPFNNPYKSLYYKGNIIAEAIEKLDREGQKFVVFADSSLLNSTPGTGRPMPGLVQYLKIPATVVDSDGAWQFLPDVASSRVPIEVTELENWQVLTPPQGKILGLKQFKLTAGFPTEQSRLPLLENSVSEDLREELMQKIDAIKNDVKMNSLVCMEAGSCDSVSPKVAARLKDMGLEAGMGASITWWRREGGMEFSHQMHTTASFKFAGKEFAVDASHLQFVHDQLDTTILILPVDDWALEIAQRNRAINPFVEYVSKTGNMLALFMPPLFTKPRLTRAL
- PKC-ε phosphorylation (PKC-ε): enhanced
- abundance and subcellular distribution of PKCα and PKCλ (PKCα and PKCλ): is not altered
- expression of total p38-MAPK protein (p38-MAPK): does not significantly alter
- signaling through the p38-MAPK cascade (phosphorylation of terminal kinase) (p38-MAPK; [1]): dose-dependent increases
- time at which p38-MAPK activation is detectable (p38-MAPK; [2]): 1 h
- magnitude of p38-MAPK activation (p38-MAPK; [3]): more modest
- expression of total JNK protein (JNK): does not significantly alter
- signaling through the JNK cascade (phosphorylation of terminal kinase) (JNK; [1]): dose-dependent increases
- time at which JNK activation is detectable (JNK; [2]): 1 h
- magnitude of JNK activation (JNK; [3]): more modest
- cell size (cellular enlargement) (cardiomyocytes): induce marked cellular enlargement
- myofibrillar (sarcomeric) organization (cardiomyocytes): promote myofibrillar organization
